Laboratory results: paper PMC4562997, “Study of light-induced MscL gating by EPR spectroscopy” (European Biophysics Journal, 2015)
Residue numbers refer to the chain shown, from its start. Names and notes keep the numbering of the source.

T1: G22C MscL, StrepII-tagged, labelled with the light switch at cysteine 22 (E. coli, UniProt P0A742 1-136, G22C, cysteine 22 alkylated with the light switch (iodoacetate bearing the photocleavable protecting group 6-nitroveratryl alcohol))
T1 construct: MscL, mechanosensitive channel of large conductance, E. coli; also called light switch-labeled-StrepII-tagged MscL; not shown: StrepII, C-terminal, kept
T1 sequence (looked up): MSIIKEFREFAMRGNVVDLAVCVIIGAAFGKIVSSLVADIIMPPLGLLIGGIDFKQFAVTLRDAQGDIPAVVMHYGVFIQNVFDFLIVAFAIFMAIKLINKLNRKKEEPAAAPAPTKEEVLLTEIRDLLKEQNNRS

B1: G22C-Strep MscL, unlabelled, after detergent exchange from LDAO to Triton X-100 (natural protein, E. coli, UniProt P0A742 1-136, looked up)
chain: T1 sequence (looked up)
notes: MscL, mechanosensitive channel of large conductance, E. coli
B2: G22C MscL (mechanosensitive channel of large conductance, E. coli), pure, unlabelled, as run on the blue native gel (natural protein, UniProt P0A742 1-136, looked up)
chain: T1 sequence (looked up)
notes: MscL, mechanosensitive channel of large conductance, E. coli; The denaturant treatment stands in the methods right after the isolation of the 6His-tagged protein, so the 6His form is likely; source: E. coli PB104 (mscL-null), p1BAD vector, purified from membrane vesicles
B3: G22C MscL, 6His-tagged, labelled with the EPR spin label at cysteine 22 (natural protein, E. coli, UniProt P0A742 1-136, looked up)
chain: T1 sequence (looked up)
modifications: cysteine 22 labelled with (1-oxyl-2,2,5,5-tetramethylpyrrolin-3-methyl) methanethiosulfonate spin label (maximally, 10:1, or minimally, 1:10 label:protein)
notes: MscL, mechanosensitive channel of large conductance, E. coli; also called EPR spin-labeled- His-tagged MscL; source: E. coli PB104 (mscL-null), p1BAD vector, purified in LDAO (Ni-NTA), spin-labelled in detergent solution; not shown: 6His, C-terminal, kept
B4: A28C MscL labelled with the EPR spin label at cysteine 28 (natural protein, E. coli, UniProt P0A742 1-136, looked up)
chain: T1 sequence (looked up) with C22G, A28C
modifications: cysteine 28 labelled with (1-oxyl-2,2,5,5-tetramethylpyrrolin-3-methyl) methanethiosulfonate spin label
notes: MscL, mechanosensitive channel of large conductance, E. coli; source: E. coli PB104 (mscL-null), p1BAD vector, purified, spin-labelled
B5: I24C MscL labelled with the EPR spin label at cysteine 24 (natural protein, E. coli, UniProt P0A742 1-136, looked up)
chain: T1 sequence (looked up) with C22G, I24C
modifications: cysteine 24 labelled with (1-oxyl-2,2,5,5-tetramethylpyrrolin-3-methyl) methanethiosulfonate spin label
notes: as for B4

Columns and labels:
[1] = molecular target: the molecule itself; test: cell-based or functional assay
[2] = molecular target: the molecule itself; test: chromatofocussing; protein purified in LDAO, detergent exchanged to Triton X-100 by size-exclusion chromatography, then chromatofocussing; pI compared with that of the pentamer
[3] = molecular target: the molecule itself; test: native gel or EMSA; blue native gel (8-16 % gradient); pure G22C MscL incubated 1 h at room temperature with urea, guanidinium hydrochloride or trifluoroethanol (various detergents also screened)
[4] = molecular target: T1, G22C MscL, StrepII-tagged, labelled …; test: sequential affinity chromatography (Ni-NTA, then Streptactin) + chromatofocussing; 6His-tagged and StrepII-tagged proteins purified in LDAO, mixed 1:1 (v/v), 45 min at room temperature, detergent exchanged to Triton X-100 by size exclusion; homopentamers removed on the two columns, heteropentamers separated on Mono P by pI; conditions: both partners purified
[5] = molecular target: the molecule itself; test: CW-EPR, intersubunit spin-spin interaction (spectral broadening); heteropentamers with 1, 2 or 3 light switches reconstituted in asolectin liposomes, room temperature, X-band; maximally (10:1) against minimally (1:10) spin-labelled channels

Binder | calcein dequenching assay of MscL reconstituted into liposomes, percent release; after exchange of LDAO to Triton X-100 (same protein:lipid ratio) [1] [%] | stoichiometry N [2] | stoichiometry N [3] | binding result [4] | binding result [5]
B1 | 85 | 5 | – | – | –
B2 | – | – | 5 | – | –
B3 | – | – | – | binds | binds
B4 | – | – | – | binds | binds
B5 | – | – | – | binds | binds
